# Measured values: patent US20170101664
# B1: Lyn kinase (protein)
# chain: MGCIKSKGKDSLSDDGVDLKTQPVRNTERTIYVRDPTSNKQQRPVPESQLLPGQRFQTKDPEEQGDIVVALYPYDGIHPDDLSFKKGEKMKVLEEHGEWWKAKSLLTKKEGFIPSNYVAKLNTLETEEWFFKDITRKDAERQLLAPGNSAGAFLIRESETLKGSFSLSVRDFDPVHGDVIKHYKIRSLDNGGYYISPRITFPCISDMIKHYQKQADGLCRRLEKACISPKPQKPWDKDAWEIPRESIKLVKRLGAGQFGEVWMGYYNNSTKVAVKTLKPGTMSVQAFLEEANLMKTLQHDKLVRLYAVVTREEPIYIITEYMAKGSLLDFLKSDEGGKVLLPKLIDFSAQIAEGMAYIERKNYIHRDLRAANVLVSESLMCKIADFGLARVIEDNEYTAREGAKFPIKWTAPEAINFGCFTIKSDVWSFGILLYEIVTYGKIPYPGRTNADVMTALSQGYRMPRVENCPDELYDIMKMCWKEKAEERPTFDYLQSVLDDFYTATEGQYQQQP
# Target: biosensor SEQ ID NO:47 (KbiotinkkafpaayiaeG-photo-cleavable linker-…rrrqrrkkr)
protein,measurement,value
B1,phosphorylation in the in vitro kinase assay,Lyn kinase did not phosphorylate the biosensor
